Key:
[1] = molecular target: TCR of murine OT1 lymphocytes (specific for OVA257-264); assay: cell-based or functional assay
[2] = molecular target: F5 MART-1 TCR, on Jurkat^α-MART-1 cells or on transduced human PBMCs; assay: immuno-PCR of the DNA tag after staining of cells, gel electrophoresis
[3] = molecular target: TCR specific for tyrosinase368-376, on Jurkat^α-Tyr cells; assay: immuno-PCR of the DNA tag after staining of cells, gel electrophoresis (non-cognate control)
[4] = molecular target: F5 MART-1 TCR, on Jurkat^α-MART-1 cells or on transduced human PBMCs; assay: multiplexed cell sorting of a 1:1 cell mix; the number is an average over spots A and B
[5] = molecular target: F5 MART-1 TCR, on Jurkat^α-MART-1 cells or on transduced human PBMCs; assay: T cell capture density against the amount of p/MHC spotted on the covalent surface, Hill fit
[6] = molecular target: TCR specific for tyrosinase368-376, on Jurkat^α-Tyr cells; assay: cell capture on a NACS array, mean of three spots of about 600 µm
[7] = molecular target: TCR specific for tyrosinase368-376, on Jurkat^α-Tyr cells; assay: multiplexed cell sorting of a 1:1 cell mix; the number is an average over spots A and B

Substance: H-2Kb-OVA257-264 ssDNA-p/MHC tetramers (SAC scaffold, encoded to strands A', B' and C') (from UniProt P01901 22-305) (peptide-MHC)
- IFN-y clusters (ELISPOT-type sandwich assay on the array) [1]: 3 clusters

Substance: MART-1 26-35/HLA-A2.1 ssDNA-p/MHC tetramer on the SAC scaffold (from UniProt P61769 21-119) (peptide-MHC)
- PCR cycles to detection of the DNA tag [2]: < 15 cycles
- PCR cycles to detection of the DNA tag [3]: 10 cycles
- average density (T cells/spot) [4]: 661 T cells/spot

Substance: fluorescent MART-1 SA-PE tetramer (MART-1 26-35 loaded onto HLA-A2.1 MHC molecules) (from UniProt P61769 21-119) (peptide-MHC)
- K1/2 (p/MHC monomer at half max) [5]: 5.7 ng

Substance: tyrosinase368-376/HLA-A2.1 ssDNA-p/MHC tetramer on the SAC (streptavidin-cysteine) scaffold (from UniProt P61769 21-119) (peptide-MHC)
- mean binding capacity (cells per spot) (T cells per spot) [6]: 1490
- average density (T cells/spot) [7]: 661 T cells/spot

From patent publication US20110166034A1
